Assays:
phospho-Sic1 = test: P-Sic1 pull down: in vitro capture of phospho-Sic1 on immobilized wild type or mutant Cdc4-GST-Skp1, anti-Sic1 immunoblot; assay type: binding, yeast; details: Sic1 phosphorylated with Cln2-Cdc28, captured onto GST-Skp1/Cdc4 resin, anti-Sic1 detection
How it was run: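 Bacterial His6-Sic1 phosphorylated by Cln2-Cdc28 from Sf9 cells; 0.5 μg phospho-Sic1 incubated with 1 μg immobilized wild-type or mutant Cdc4(263-744)-GST-Skp1 at 4° C for 1 h, washed four times. Bound Sic1 detected by anti-Sic1 immunoblot after SDS-PAGE.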

phospho-Sic1 isoforms [1] = molecular target: T1, phospho-Sic1 isoforms (Saccharomyces cerevisiae, UniProt P38634); test: in vitro ubiquitination of phospho-Sic1 isoforms by wild type or mutant SCFCdc4 complex; assay type: biochemical, yeast; details: Cdc34, ubiquitin, ATP, 1 h at 30° C.
T1 construct: His6 (N); made in house; host or cells: bacteria (Sic1, Cdc4-GST-Skp1); insect cells (Cdc53-Rbx1)
T1 sequence (P38634 1-284): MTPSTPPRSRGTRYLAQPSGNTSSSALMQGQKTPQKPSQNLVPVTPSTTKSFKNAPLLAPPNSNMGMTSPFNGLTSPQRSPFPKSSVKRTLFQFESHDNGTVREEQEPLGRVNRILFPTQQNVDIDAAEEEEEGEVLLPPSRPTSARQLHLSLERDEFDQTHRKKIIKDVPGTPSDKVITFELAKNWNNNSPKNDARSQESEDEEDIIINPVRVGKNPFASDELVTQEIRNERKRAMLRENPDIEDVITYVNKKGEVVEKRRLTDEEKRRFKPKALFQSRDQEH

[2] = system: cdc4Δ strain overexpressing SIC1; test: sensitivity to SIC1 dosage: GAL1-SIC1 overexpression in strains bearing CDC4 alleles; assay type: cell-based, yeast; details: galactose, 2 days at 30° C.
How it was run: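 SIC1 dosage sensitivity: cdc4Δ strains carrying CDC4 mutant alleles (after plasmid shuffle) transformed with GAL1-SIC1 or GAL1-SIC1^T33V (also T45A), plated on glucose versus galactose medium for 2 days at 30 °C. Growth on galactose scored as tolerance of SIC1 overexpression.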

cdc4Δ strain = test: plasmid shuffle assay: complementation of a cdc4Δ strain by CDC4 alleles; assay type: cell-based, yeast; details: viability of cdc4Δ strain on 5-FOA, 2 days at 30° C.
How it was run: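 Mutant CDC4 alleles on TRP1 CEN plasmids were shuffled into cdc4Δ strain MT 1259 carrying wild-type CDC4 on a URA3 plasmid, with growth on 5-FOA for 2 days at 30° C. Survivors were transformed with GAL1-SIC1 or phosphosite mutants and plated on glucose or galactose, 2 days at 30° C.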

phospho-Sic1 isoforms [3] = test: IEF-2D gel analysis of Sic1 phospho-isoforms captured by wild type or mutant Cdc4-GST-Skp1; assay type: binding, yeast; details: pool of Sic1 phosphorylated on 1 to 9 sites; listed as Wild type Cdc4
Experimental: Bacterially expressed His6-Sic1 was phosphorylated with Cln2-Cdc28 kinase purified from baculovirus infected Sf9 cells as described before (Nature paper). 1 ug of WT or mutant Cdc4-GST-Skp1, immoblized on GSH-Sepharose resin, was incubated with 0.5 ug phospho-Sic1 at 4 C for 1 h and washed 4 times. Captured complexes were resolved on SDS-PAGE and Sic1 visualized by anti-Sic1 Western blotting and ECL. For IEF-2D analysis, several Sic1 phosphorylation reactions were carried out for different time periods to obtain a spectrum of Sic1 that were phosphorylated at different numbers of its nine CDK sites. This pool of phospho-Sic1 (2.5 ug) was incubated with 5 μg of WT or mutant Cdc4-GST-Skp1 as described above. Different phosphorylation states of Sic1 were separated by denaturing isoelectric focusing (IEF)-2D gel electrophoresis and visualized by anti-Sic1 Western blotting and ECL. IEF was performed using pH 3-10NL Immobiline gel strips and IPGphore IEF system (Amersham pharmacia).
Cdc4 functional assays. CDC4 mutant alleles were assessed for complementation of a cdc4A strain in a plasmid shuffle assay (Nash et al., 2001). Sensitivity to SIC1 dosage was determined by transformation with pMT837 (GAL1-SIC1) or pMT767 (GAL1-SIC1^T33V) and plating on glucose medium or galactose medium. […]

B1: WT: wild type yeast Cdc4 F-box protein (protein, UniProt P07834 1-779, looked up)
Cell division control protein …: MGSFPLAEFPLRDIPVPYSYRVSGGIASSGSVTALVTAAGTHRNSSTAKTVETEDGEEDIDEYQRKRAAGSGESTPERSDFKRVKHDNHKTLHPVNLQNTGAASVDNDGLHNLTDISNDAEKLLMSVDDGSAAPSTLSVNMGVASHNVAAPTTVNAATITGSDVSNNVNSATINNPMEEGALPLSPTASSPGTTTPLAKTTKTINNNNNIADLIESKDSIISPEYLSDEIFSAINNNLPHAYFKNLLFRLVANMDRSELSDLGTLIKDNLKRDLITSLPFEISLKIFNYLQFEDIINSLGVSQNWNKIIRKSTSLWKKLLISENFVSPKGFNSLNLKLSQKYPKLSQQDRLRLSFLENIFILKNWYNPKFVPQRTTLRGHMTSVITCLQFEDNYVITGADDKMIRVYDSINKKFLLQLSGHDGGVWALKYAHGGILVSGSTDRTVRVWDIKKGCCTHVFKGHNSTVRCLDIVEYKNIKYIVTGSRDNTLHVWKLPKESSVPDHGEEHDYPLVFHTPEENPYFVGVLRGHMASVRTVSGHGNIVVSGSYDNTLIVWDVAQMKCLYILSGHTDRIYSTIYDHERKRCISASMDTTIRIWDLENIWNNGECSYATNSASPCAKILGAMYTLQGHTALVGLLRLSDKFLVSAAADGSIRGWDANDYSRKFSYHHTNLSAITTFYVSDNILVSGSENQFNIYNLRSGKLVHANILKDADQIWSVNFKGKTLVAAVEKDGQSFLEILDFSKASKINYVSNPVNSSSSSLESISTSLGLTRTTIIP
For B1, the P-Sic1 pull down (phospho-Sic1) was “bind”, the “conversion of Sic1 phosphorylated on four or five sites to oligo-ubiquitinated species” value (phospho-Sic1 isoforms [1]) was “unable” and the “gal Sic1T33V” value ([2]; GAL1-SIC1 T33V (partially stabilized Sic1)) was “alive”. For the same molecule, the “gal Sic1T45A” value ([2]; GAL1-SIC1 T45A) was “dead”, the “gal Sic1 wt” value ([2]; GAL1-SIC1 wild type) was “alive” and the shuffle (cdc4Δ strain) was “alive”. For the same molecule, the “Sic1 phospho-isoforms captured (number of phosphorylated sites)” value (phospho-Sic1 isoforms [3]) was “six or more sites”.
